System: AHR
Assay: Coimmunoprecipitation of 35S-labeled AHR with T7-tagged ARA9 or FKBP52
Format: binding
Settings: T7-agarose coimmunoprecipitation, reticulocyte lysate AHR
Protocol: Bacterial Expression: The ARA9 and FKBP52 proteins tagged with the T7 peptide (PL799, PL1004, PL1005 and PL947) were expressed in BL21(DE3) bacteria (Novagen). The T7 tag is an 11 amino acid peptide, MASMTGGQQMG, that facilitates detection and purification of the recombinant protein using anti-T7 antibodies (Novagen). Saturated cultures were used to inoculate LB growth media supplemented with 0.4 mM IPTG and 100 μg/ml ampicillin. The bacteria were allowed to grow an additional 4 hours at 37° C and pelleted by centrifugation at 5000×g for 5 min. The pellet was resuspended in bind/wash buffer (4.29 mM Na2HPO4, 1.47 mM KH2PO4, 2.7 mM KCl, 0.137 M NaCl, 0.1% (v/v) Tween and 0.002% (w/v) NaN3). The resulting mixture was disrupted using four ×15 second sonic pulses on ice. Insoluble debris was removed by centrifugation at 12,000×g for 20 minutes at 4° C. The supernatant was passed through a […] filter and protein concentrations determined by the BCA protein assay (Pierce, Rockford Ill.). […] The complexes were then precipitated and analyzed by SDS-PAGE and autoradiography.
Specificity of ARA9 for AHR: The structural similarity between ARA9 and FKBP52 led us to compare the relative capacity of these two factors to bind AHR. […] The AHR-ARA9 or AHR-FKBP52 associations were determined by coimmunoprecipitation with T7-agarose.

B1: ARA9: 37 kDa Ah receptor-associated protein, immunophilin structurally similar to FKBP52 (protein, UniProt O08915 1-330, looked up)
AH receptor-interacting …: MADLIARLREDGIQKRVIQEGRGELPDFQDGTKATFHFRTLHSDNEGSVIDDSRTRGKPMELIVGKKFKLPVWETIVCTMREGEIAQFLCDIKHVVLYPLVAKSLRNIAEGKDPLEGQRHCCGIAQMHEHSSLGHADLDALQQNPQPLIFHIEMLKVESPGTYQQDPWAMTDEEKAKAVPVIHQEGNRLYREGQVKEAAAKYYDAIACLKNLQMKEQPGSPDWIQLDLQITPLLLNYCQCKLVAQEYYEVLDHCSSILNKYDDNVKAYFKRGKAHAAVWNAQEAQADFAKVLELDPALAPVVSRELRALETRIRQKDEEDKARFRGIFSH
  efficiency at precipitating AHR relative to FKBP52: approximately four times more efficient

Reference: US6432692B1, “Sensitive bioassay for detecting agonists of the aryl hydrocarbon receptor” (Wisconsin Alumni Research Foundation, priority 1999, dated 2002)
